This test has as its target T1, polypeptide complex 1 (PC-1).
T1 construct: also called Intact PC-1; uncleaved PC-1
Nature of the test: ELISA ('Cyno Albumin ELISA'). (In general: In an ELISA, binding on a coated surface is turned into a signal by an enzyme label.)

B1: cynomolgus monkey albumin (other)
chain: DTHKSEVAHRFKDLGEEHFKGLVLVAFSQYLQQCPFEEHVKLVNEVTEFAKTCVADESAENCDKSLHTLFGDKLCTVATLRETYGEMADCCAKQEPERNECFLQHKDDNPNLPPLVRPEVDVMCTAFHDNEATFLKKYLYEVARRHPYFYAPELLFFAARYKAAFAECCQAADKAACLLPKLDELRDEGKASSAKQRLKCASLQKFGDRAFKAWAVARLSQKFPKAEFAEVSKLVTDLTKVHTECCHGDLLECADDRADLAKYMCENQDSISSKLKECCDKPLLEKSHCLAEVENDEMPADLPSLAADYVESKDVCKNYAEAKDVFLGMFLYEYARRHPDYSVMLLLRLAKAYEATLEKCCAAADPHECYAKVFDEFQPLVEEPQNLVKQNCELFEQLGEYKFQNALLVRYTKKVPQVSTPTLVEVSRNLGKVGAKCCKLPEAKRMPCAEDYLSVVLNRLCVLHEKTPVSEKVTKCCTESLVNRRPCFSALELDEAYVPKAFNAETFTFHADMCTLSEKEKQVKKQTALVELVKHKPKATKEQLKGVMDNFAAFVEKCCKADDKEACFAEEGPKFVAASQAALA
notes: Antigen immobilized on the ELISA plate
Regarding B1, the binding result is listed as “binds”.
